Reference: patent US20160287696A1, “PAN POLLEN IMMUNOGENS AND METHODS AND USES FOR IMMUNE RESPONSE MODULATION” (LA JOLLA INSTITUTE FOR ALLERGY AND IMMUNOLOGY, priority 2013, published 2016)

Test system: cultured PBMCs of the allergic donors
Assay: ELISPOT of IL-5 or IFNg production by cultured PBMCs of TG allergic donors in response to peptide
Type: cell-based, human
Details: for No of PG+ & th+ peptides per NTGA / No of PP & Th+ peptides per NTGA: Table 6; for No of PG+ & th+ peptides per NTGA: PG+ peptides recognized by T cells of grass allergic donors (n=20); for No of PP & Th+ peptides per NTGA: PP peptides recognized by T cells of grass allergic donors (n=20); for # Th+: Table 7, peptides per NTGA recognized by T cells of grass allergic donors (n=20); for NTGA's containing at least one T cell epitope, Th+ (Col 2): NTGA number given = criterion met, TG allergic donors n=20
Procedure, shortened: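 Counts of responding donors among 20 TG-allergic subjects, judged by ELISPOT for IL-5 or IFNg (positive: minimum 20 SFCs/10^6 PBMCs, stimulation index 2 or more, P .05). Cells were pre-expanded with TG pollen extract or peptide pool, then stimulated at 1×10^5/well with 10 μg/mL peptide.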

B1: NTGA 3: Phl p wild type sequence, Table 2 (protein)
chain: MDDHKEHKEKEHTGGNPEVNEEEEEDEEAKRAVLLGPQVPLKEQLELDKDDESLRRWKEQLLGQVDTEQLGETAEPEVKVVDLTILSPDRPDLVLPIPFVADEKGYAFALKDGSTYSFRFSFIVSNNIVSGLKYTNTVWKTGVRVENQKMMLGTFSPQPEPYIYVGEEETTPAGIFARGSYSAKLKFVDDDGKVYLEMSYYFEIRKDWPTGQ
modifications: Phleum Pratense
Q: Which “No of PG+ & th+ peptides per NTGA” value does the source give for B1 here?
A: 0

Q: And the “No of PP & Th+ peptides per NTGA” value?
A: 0

Q: What about the “# Th+” value of the same molecule?
A: 0

B2: NTGA 73: Phl p wild type sequence, Table 2 (protein)
chain: MSSAKQVLEPAFQGAGQKPGTEIWRIENFNPVPLPKSDYGKFYCGDSYIVLQTTCNKGGAYLFDIHFWIGKDSSQDEAGTSAIKTVELDTMLGGRAVQHREPQGYESDKFLSYFKPCIIPLEGGFASGFKTPEEEKFETRLYICKGKRAIRVKEVPFARSSLNHDDVFILDTEKKIYQFNGANSNIQERAKALEVIQHLKDKYHEGVCDVAIVDDGKLQAESDSGEFWVVFGGFAPIGKKTVSDDDVILETSPTKLYSINNGKLKLEDIVLTKSILENTKCFLLDCGSELFVWVGRVTQVDDRKAASAAVEEFIVKQNRPKTTRVTQVIQGYENHTFKSLFESWPVSSTGNASTEEGRGKVAALLKKKGDVKGASKNSTPVNEEVPPLLEGSGKLEVWCVDGSAKTALPKEDLGKFHSGDCYIVLYTYHSGEKREEFYLTYWIGKDSVLEDQHMALQIATTIWNSMKGRPVLGRIYQGKEPPQFIALFQPMVILKGGISSGYKKSIEENGLKDETYSGTGIALVHIHGTSIHNNKTLQVDAVSISLSSTDCFVLQSGNSMFTWIGNTSSYEQQQWAAKVAEFLKPGASVKHCKEGTESSAFWSALGGKQNYTSKNATQDVLREPHLYTFSFRNGKLEVTEVFNFSQDDLLTEDVMILDTHAEVFVWMGQCVDTKEKQTAFETGQKYVEHAVNFEGLSPDVPLYKVSEGNEPCFFRTYFSWDNTRSVIHGNSFQKKLSLLFGMRSESGSKGSGDGGPTQRASALAALSSAFNPSSQDKQSNDRPKSSGDGGPTQRASALAALSSSLNPSSKPKSPHSQSRSGQGSQRAAAVAALSNVLTAEGSTLSPRNDAEKTELAPSEFHTDQDAPGDEVPSEGERTEPDVSQEETANENGGETTFSYDRLISKSTDPVRGIDYKRRETYLSDSEFETVFGVTKEEFYQQPRWKQELQKRKADLF
modifications: Phleum Pratense
Q: Which “No of PG+ & th+ peptides per NTGA” value does the source give for B2 here?
A: 0

Q: What about the “No of PP & Th+ peptides per NTGA” value of the same molecule?
A: 0

Q: And the “# Th+” value?
A: 0

B3: NTGA 19: Phl p wild type sequence, Table 2 (protein)
chain: GVVATTDAVEACTGVNVAVMVGGFPRKEGMERKDVMSKNVSIYKSQASALEAHAAPNCKVLVVANPANTNALILKEFAPSIPEKNISCLTRLDHNRALGQVSERLNVQVSDVKNVLIWGNHSSSQYPDVNHATVKTSSGEKPVRELVQDDEWLNGPFIATVQQRGAAIIKARKLSSALSAASSACDHIRDWVLGTPEGTFVSMGVYSDGSYGVPAGLIYSFPVTCSGGEWTIVQGLPIDEFSRKKMDATAQELSEEKALAYSCL
modifications: Phleum Pratense
Q: Which “No of PG+ & th+ peptides per NTGA” value does the source give for B3 here?
A: 0

Q: And the “No of PP & Th+ peptides per NTGA” value?
A: 0

Q: What about the “# Th+” value of the same molecule?
A: 0

B4: NTGA 13: Phl p wild type sequence, Table 2 (protein)
chain: MDEEYDVIVLGTGLKECILSGLLSVDGLKVLHMDRNDYYGGESTSLNLTKIWKRFKGSEATPDHLGVSKEYNVDMVPKFMMANGALVRVLIRTSVTKYLNFKAVDGSFVYNNGKIHKVPATDVEALKSNLMGLFEKRRARKFFIYVQDYEEEDPKSHEGLDLHKVTTREVISKYGLEDDTVDFIGHALALHRDDNYLDEPAIDTVKRMKLYAESLARFQGGSPYIYPLYGLGELPQAFARLSAVYGGTYMLNKPECKVEFDESGKAFGVTSEGETAKCKKVVCDPSYLPDKVTKVGRVARAICIMKHPIPDTKDSHSVQIILPKKQLKRKSDMYVFCCSYAHNVAPKGKFIAFVSTEAETDKPEIELKPGIDLLGPVEETFFDIYDRYEPANAPEEDNCFVTNSYDATTHFETTVKDVLALYSKITGKELDLSVDLNAASAGESE
modifications: Phleum Pratense
Q: For B4, which “No of PG+ & th+ peptides per NTGA” value is on record?
A: 0

Q: And the “No of PP & Th+ peptides per NTGA” value?
A: 0

Q: And the “# Th+” value?
A: 0

B5: NTGA 8: Phl p wild type sequence, Table 2 (protein)
chain: FEGCLAKSYKSEKSDKSATYDYSANIECEKEPPKPLYGGGILTGAEAPAPVSAGGKKLLMAKSKSAPAKGSTLKVELEKDTHYTLSAWLQLSKSTGDVKAILVTPDGNFNTAGMLVVQSGCWTMLKGGATSFAAGKGELFFETNVTAELMVDSMSLQPFSFEEWKSHRHESIAKERKKKVKITVHGSDGKVLPDAELSLERVAKGFPLGNAMTKEILDIPEYEKWFTSRFTVATMENEMKWYSTEYDQNQELYEIPDKMLALAEKYNISVRGHNVFWDDQSKQMDWVSKLSAPQLKKAMEKRMKNVVSRYAGKLIHWDVLNENLHYSFFEDKLGKDASAEVFKEVAKLDDKPILFMNEYNTIEEPNDAAPLPTKYLAKLKQIQSYPGNSKLKYGIGLESHFDTPNIPYVRGSLDTLAQAKVPIWLTEIDVKKGPKQVEYLEEVMREGFAHPGVKGIVLWGAWHAKECYVMCLTDKNFKNLPVGDVVDKLITEWKAVPEDAKTDDKGVFEAELFHGEYNVTVKHKS
modifications: Phleum Pratense
Q: How did the “# Th+” value turn out when B5 was run?
A: 0

B6: NTGA 86: Phl p wild type sequence, Table 2 (protein)
chain: MSTAEATREENVYMAKLAEQAERYEEMVEFMEKVAKTADVGELTVEERNLLSVAYKNVIGARRASWRIISSIEQKEESRGNEAYVASIKEYRTRIETELSKICDGILKLLDSHLVPSATAAESKVFYLKMKGDYHRYLAEFKAGAERKEAAENTLVAYKSAQDIALADLPTTHPIRLGLALNFSVFYYEILNSPDRACNLAKQAFDEAIAELDSLGEESYKDSTLIMQLLRDNLTLWTSDNADEGGDEIKEASKPEGEGH
modifications: Phleum Pratense
Q: How did the “NTGA's containing at least one T cell epitope, Th+ (Col 2)” value (from here on “NTGA's containing”) turn out when B6 was run?
A: 86

Q: What about the “No of PG+ & th+ peptides per NTGA” value of the same molecule?
A: 1

Q: What about the “No of PP & Th+ peptides per NTGA” value of the same molecule?
A: 1

Q: What about the “# Th+” value of the same molecule?
A: 0

B7: NTGA 52: Phl p wild type sequence, Table 2 (protein)
chain: MDACRLLLLLLLGLLGLLAPLASAQLSREFYKASCPDAEKIVAAVIEKKLKEDPGTAAGLLRLLFHDCFANGCDASILIDPLSNQSAEKEAGPNISVRGFEVIDDIKKELEAKCPKTVSCADIVALGTRDAVRISGGPAYEVPTGRRDSLVSNREEADNNLPGPDIPIPKLTSEFLSRGFTPEEMVVLLAGGHSIGKVRCIFIEPDATPMDPGYQASISKLCDGPNRDTGFVNMDEHNPNVIDSSYFANVLAKKMPLTVDRLLGLDSKTTPIIKNMLNKPNDFMPTFAKAMEKLSVLKVITGKDG
modifications: Phleum Pratense
Q: Which “# Th+” value does the source give for B7 here?
A: 1

B8: NTGA 87: Phl p wild type sequence, Table 2 (protein)
chain: MAVKVYVVYYSMYGHVGKLAEEIKKGASSVEGVEVKVWQVPEILSEEVLGKMGAPPKTDVPIISPQELAEADGILFGFPTRFGMMASQMKAFFDATGGLWREQSLAGKPAGVFFSTGTQGGGQETTPLTAVTQLTHHGMVFVPVGYTFGAKMFDMEKVQGGSPYGAGTFAGDGSRWPSEMELEHAFHQGKYFAGIAKKLKGS
modifications: Phleum Pratense
Q: Which “No of PG+ & th+ peptides per NTGA” value does the source give for B8 here?
A: 0

Q: What about the “No of PP & Th+ peptides per NTGA” value of the same molecule?
A: 0

Q: And the “# Th+” value?
A: 0

B9: NTGA 39/59: Phl p wild type full length sequence from which PG+ peptides of NTGA's 39 and 59 derive (protein)
chain: MAPRKFFVGGNWKCNGASDDVKKIVTVLNEAEVPSEDAVEVVVSPPFVFLQQAKALLRPDFAVAAQNCWVRKGGAFTGEISAEMLVNLQVPWVILGHSERRALLSESNDFVADKVAYALAQGLKVIACIGETLEQREAGTTMEVVAAQTKAIAEKISDWTNVVLAYEPVWAIGTGKVASRAQAQEVHDGLRKWLHANVGPAVAESTRIIYGGSVNGANCKELAAQPDLDGFLVGGASLKPEFVDIIKSATVKSSS
modifications: Phleum Pratense
Q: For B9, which “NTGA's containing” value is on record?
A: 39/59

B10: NTGA 5/64: Phl p wild type full length sequence from which PG+ peptides of NTGA's 5 and 64 derive (protein)
chain: MAAKCYPTVSDEYLAAVAKARRKLRGLIAEKNCAPLMLRIAWHSAGTFDVATKTGGPFGTMRCPAELAHGANAGLDIAVRLLEPIKEQVPILSYADFYQLAGVVAVEITGGPEVPFHPGRQDKTEPPPEGRLPDATLGSDHLRQVFTAQMGLSDQDIVALSGGHTLGRCHKERSGFEGAWTANPLIFDNSYFTELLTGEKEGLLQLPTDKTLLTDPAFRPLVEKYAADEDAFFADYAEAHLKLSELGFGE
modifications: Phleum Pratense
Q: Which “NTGA's containing” value does the source give for B10 here?
A: 5/64
